Results: IntAct's records for PubMed 15811349

Columns and labels:
pick1_mouse Pick1 = pick1_mouse Pick1 (UniProt Q62083)
afad_human AFDN = afad_human AFDN (UniProt P55196)
UniProt P55196, sequence (P55196 whole entry): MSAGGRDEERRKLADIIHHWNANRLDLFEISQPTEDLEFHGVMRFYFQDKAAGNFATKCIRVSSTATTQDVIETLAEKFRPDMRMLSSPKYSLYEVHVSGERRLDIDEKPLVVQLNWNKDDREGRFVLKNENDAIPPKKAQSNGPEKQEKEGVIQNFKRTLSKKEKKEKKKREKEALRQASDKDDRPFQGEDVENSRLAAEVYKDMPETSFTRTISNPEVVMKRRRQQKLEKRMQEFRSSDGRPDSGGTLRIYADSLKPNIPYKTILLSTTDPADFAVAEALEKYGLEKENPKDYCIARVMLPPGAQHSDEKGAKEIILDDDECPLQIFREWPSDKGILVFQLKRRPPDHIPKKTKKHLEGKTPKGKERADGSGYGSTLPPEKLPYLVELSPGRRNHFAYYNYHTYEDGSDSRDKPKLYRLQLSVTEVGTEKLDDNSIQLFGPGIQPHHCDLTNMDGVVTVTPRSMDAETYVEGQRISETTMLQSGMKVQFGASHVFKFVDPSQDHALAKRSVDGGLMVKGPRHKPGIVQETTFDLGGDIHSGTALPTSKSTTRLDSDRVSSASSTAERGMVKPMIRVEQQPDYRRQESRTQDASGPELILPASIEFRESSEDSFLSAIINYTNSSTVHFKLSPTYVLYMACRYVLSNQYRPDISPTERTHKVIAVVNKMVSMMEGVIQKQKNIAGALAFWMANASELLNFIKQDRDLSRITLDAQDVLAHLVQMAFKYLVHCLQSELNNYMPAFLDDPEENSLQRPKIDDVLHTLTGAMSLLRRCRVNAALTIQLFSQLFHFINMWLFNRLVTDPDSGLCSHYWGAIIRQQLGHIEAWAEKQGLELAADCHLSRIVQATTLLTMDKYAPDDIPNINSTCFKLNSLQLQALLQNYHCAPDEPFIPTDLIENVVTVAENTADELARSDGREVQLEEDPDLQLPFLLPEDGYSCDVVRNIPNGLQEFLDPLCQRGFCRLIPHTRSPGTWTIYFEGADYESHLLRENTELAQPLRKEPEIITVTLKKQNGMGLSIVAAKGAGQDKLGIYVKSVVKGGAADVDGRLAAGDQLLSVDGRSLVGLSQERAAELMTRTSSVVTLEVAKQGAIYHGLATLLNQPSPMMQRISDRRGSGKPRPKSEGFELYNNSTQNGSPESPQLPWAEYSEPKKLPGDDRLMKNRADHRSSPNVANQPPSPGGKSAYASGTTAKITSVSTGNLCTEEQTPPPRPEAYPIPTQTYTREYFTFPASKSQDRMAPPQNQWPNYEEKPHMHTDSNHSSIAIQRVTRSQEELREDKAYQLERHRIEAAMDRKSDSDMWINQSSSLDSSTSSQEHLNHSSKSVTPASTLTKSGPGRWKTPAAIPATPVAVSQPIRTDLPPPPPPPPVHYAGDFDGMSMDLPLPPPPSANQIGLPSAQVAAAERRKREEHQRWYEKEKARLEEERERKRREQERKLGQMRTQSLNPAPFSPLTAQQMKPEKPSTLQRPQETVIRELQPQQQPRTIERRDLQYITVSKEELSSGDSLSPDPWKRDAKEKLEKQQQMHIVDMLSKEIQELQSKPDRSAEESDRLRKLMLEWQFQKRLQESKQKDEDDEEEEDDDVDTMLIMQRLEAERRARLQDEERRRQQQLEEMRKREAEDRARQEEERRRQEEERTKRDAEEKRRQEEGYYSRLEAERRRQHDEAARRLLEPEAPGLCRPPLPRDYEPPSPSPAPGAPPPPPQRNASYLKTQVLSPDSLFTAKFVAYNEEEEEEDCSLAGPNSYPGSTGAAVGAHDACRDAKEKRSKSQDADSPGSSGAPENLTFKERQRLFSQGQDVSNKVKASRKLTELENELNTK

UniProt Q62083, sequence (Q62083 whole entry): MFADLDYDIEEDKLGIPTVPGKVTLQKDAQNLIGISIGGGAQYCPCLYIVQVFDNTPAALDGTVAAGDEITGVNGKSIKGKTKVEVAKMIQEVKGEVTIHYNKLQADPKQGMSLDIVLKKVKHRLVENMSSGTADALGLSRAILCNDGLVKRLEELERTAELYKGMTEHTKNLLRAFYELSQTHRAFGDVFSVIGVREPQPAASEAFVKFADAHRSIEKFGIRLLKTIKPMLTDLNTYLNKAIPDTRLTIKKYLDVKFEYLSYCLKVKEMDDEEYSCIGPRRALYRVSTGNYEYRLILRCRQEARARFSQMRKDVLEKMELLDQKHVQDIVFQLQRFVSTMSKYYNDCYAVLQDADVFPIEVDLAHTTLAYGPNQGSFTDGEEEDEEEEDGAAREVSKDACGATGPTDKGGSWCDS

Row | effect of a mutation on the interaction (pick1_mouse Pick1) | effect of a mutation on the interaction (afad_human AFDN) | Substance
1 | disrupting interaction |  | Nectin-3 (Homo sapiens) (from UniProt Q9NQS3) E546G
2 | decreasing interaction | disrupting interaction | Nectin-3 (Homo sapiens) (from UniProt Q9NQS3) V549A
3 |  | disrupting interaction | Nectin-3 (Homo sapiens) (from UniProt Q9NQS3) Y548A
